# ± gives the standard deviation of the averaged measurements.
# B1: library; a variant is named by its letters at N, in order (parent)
# chain: GCUGUCACCGGUGUAUUACCCUAGUGGUCGACCGGUCUGAUGAGUCUNNNNNNAGACGAAACAGC
# How the values were obtained:
# hypoxanthine [1] = variants of: B1; experiment: FACS-Seq fitted mean relative fluorescence mCherry/BFP without ligand (log10 relative fluorescence); ligand: hypoxanthine (xanthine aptamer); higher = higher reporter protein expression; details: HEK293T, ligand present: no
# Method in brief: (§1)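 Fluorescence is reported as a normalized fitted mean of sorted-bin read counts. Lentivirally transduced HEK293T libraries (mCherry ribozyme-switch reporter, EF1α-BFP marker) were enriched, treated with or without ligand for 48 h, and sorted into 6 mCherry/BFP bins for MiSeq sequencing of PCR-amplified genomic DNA. The normal fit was on log10(mCherry/BFP), scaled to five spiked-in control ribozymes.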
# hypoxanthine [2] = variants of: B1; experiment: normalized RNA/DNA level with ligand (relative to sTRSVctl = 100) (log10 (% of sTRSVctl)); ligand: hypoxanthine (xanthine aptamer); higher = less ribozyme self-cleavage, higher mRNA level; details: ligand concentration (+) RNA-Seq: 5 mM, HEK293T, reporter: mCherry (pCS4076), ligand present: yes
# Method in brief: (§2)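 Ribozyme switch library plasmids linked to reporters were introduced into HEK293T cells at 4 µg per 6-well well, with ligand, if any, added 1 h before. Total RNA was extracted with EDTA 72 h later, reverse-transcribed, amplified, barcoded and sequenced. RNA level was computed from RNA over DNA reads relative to a spiked-in non-cleaving sequence or the top sequences, then scaled and log-transformed. The top set was 25 sequences, values were ×100 and log10, and the cutoff was ≥100 DNA reads.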
# hypoxanthine [3] = variants of: B1; experiment: normalized RNA/DNA level without ligand (relative to sTRSVctl = 100) (log10 (% of sTRSVctl)); ligand: hypoxanthine (xanthine aptamer); higher = less ribozyme self-cleavage, higher mRNA level; details: HEK293T, reporter: mCherry (pCS4076), ligand present: no
# Method in brief: as §2
# hypoxanthine [4] = variants of: B1; experiment: FACS-Seq fitted mean relative fluorescence mCherry/BFP with ligand (log10 relative fluorescence); ligand: hypoxanthine (xanthine aptamer); ligand concentration (+) FACS-Seq: 5 mM; higher = higher reporter protein expression; details: HEK293T, ligand present: yes
# Method in brief: as §1
Variant,FACS-Seq fitted mean (log10) (hypoxanthine [1]),normalized RNA/DNA level with ligand (log10) (hypoxanthine [2]),normalized RNA/DNA level without ligand (log10) (hypoxanthine [3]),FACS-Seq fitted mean (log10) (hypoxanthine [4])
AUUCUC,0.8249 ± 0.0011,2.01 ± 0.033,1.96 ± 0.044,0.724 ± 0.063
AAAACC,,1.93 ± 0.033,1.876 ± 0.018,
AUUAUU,0.5583 ± 0.0011,1.91 ± 0.0029,1.881 ± 0.011,0.668 ± 0.014
AUUAUA,0.24 ± 0.022,1.928 ± 0.019,1.81 ± 0.028,0.402 ± 0.063
AAAAAC,,1.894 ± 0.015,1.8 ± 0.021,
AAACGC,,1.91 ± 0.063,1.68 ± 0.021,
GUUGUU,0.56 ± 0.026,1.969 ± 0.0045,1.9 ± 0.029,0.67542 ± 0.00062
GUUGUA,0.455 ± 0.0078,1.9 ± 0.025,1.84 ± 0.032,0.632 ± 0.012
GUUGUG,0.225 ± 0.066,1.83 ± 0.042,1.39 ± 0.028,0.406 ± 0.14
CAAAGG,,1.751 ± 0.005,1.26 ± 0.062,
CAAAGA,,1.93 ± 0.03,1.768 ± 0.0019,
CAAAGC,,1.956 ± 0.01,1.77 ± 0.021,
CAACCC,,1.98 ± 0.012,1.855 ± 0.011,
CAACCA,,1.95 ± 0.066,1.803 ± 0.0098,
CAACCU,,1.98 ± 0.049,1.911 ± 0.0025,
CAACCG,,1.95 ± 0.096,1.89 ± 0.028,
GUUGGG,0.375 ± 0.11,1.89 ± 0.025,1.52 ± 0.029,0.635 ± 0.028
CUUGAA,0.0914 ± 0.0068,1.95 ± 0.041,1.706 ± 0.015,0.182 ± 0.0048
CUUGAU,-0.553 ± 0.022,1.94 ± 0.031,1.74 ± 0.011,-0.303 ± 0.012
CUUAAC,0.554 ± 0.03,1.89 ± 0.059,1.82 ± 0.036,0.637 ± 0.05
CUUCCC,-0.199 ± 0.041,1.9 ± 0.021,1.9406 ± 0.0018,0.0439 ± 0.038
UUUUGA,0.455 ± 0.043,1.98 ± 0.031,1.63 ± 0.023,0.5 ± 0.019

# Source: the supplement of paper PMC6757056
